Values of other authors, collected in patent EP4725499A1, “M[…] PROTEIN FOR IMM[…] ALZHEIMER'S DISEASE” (Centro De Neurociencias De Cuba, priority 2023, dated 2024).

Target: Aβ (Homo sapiens, UniProt P05067)
Sequence (P05067 672-713 limits assumed): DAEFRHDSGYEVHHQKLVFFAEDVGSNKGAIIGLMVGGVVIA

## AN1792: AN1792 vaccine, consisting of a synthetic Aβ1-42 peptide
follow-up of responders, 1-3 injections, low titers
  time after which responders maintained an anti-AN-1792 antibody response: approximately 4.6 years
Patients with mild to moderate AD, phase II
  patients who developed an anti-Aβ antibody response: 19.7%
Responders compared with placebo-treated patients, follow-up
  progression of cognitive decline: significantly reduced
